Patent US20030232387A1

How the values were obtained:
[1] = target: E-cadherin-IgG fusion protein (human) (UniProt P12830); experiment: cell adhesion assay; buffer with Ca^2+, Mg^2+ and Mn^2+ (1 mM each)
[2] = target: E-cadherin-IgG fusion protein (human) (UniProt P12830); experiment: cell adhesion assay; buffer with EDTA (5 mM)
[3] = target: E-cadherin-IgG fusion protein (human) (UniProt P12830); experiment: cell adhesion assay; buffer with Ca^2+ and Mg^2+ (1 mM each)
[4] = target: human αEβ7 integrin expressed on cells (human) (UniProt P38570); experiment: staining of K562 αEβ7 cells, 2.5 µg/ml; Ca^2+ and Mg^2+ (1 mM each)
[5] = target: human αEβ7 integrin expressed on cells (human) (UniProt P38570); experiment: staining of K562 αEβ7 cells, 10 µg/ml; Ca^2+ and Mg^2+ (1 mM each)
[6] = target: human αEβ7 integrin expressed on cells (human) (UniProt P38570); experiment: staining of K562 αEβ7 cells, 5 µg/ml; Ca^2+, Mg^2+ and Mn^2+ (1 mM each)

human αEβ7 integrin expressed on cells (human), sequence (P38570 other isoform, or with tags, fused parts or gaps limits assumed, chain 1 of 2): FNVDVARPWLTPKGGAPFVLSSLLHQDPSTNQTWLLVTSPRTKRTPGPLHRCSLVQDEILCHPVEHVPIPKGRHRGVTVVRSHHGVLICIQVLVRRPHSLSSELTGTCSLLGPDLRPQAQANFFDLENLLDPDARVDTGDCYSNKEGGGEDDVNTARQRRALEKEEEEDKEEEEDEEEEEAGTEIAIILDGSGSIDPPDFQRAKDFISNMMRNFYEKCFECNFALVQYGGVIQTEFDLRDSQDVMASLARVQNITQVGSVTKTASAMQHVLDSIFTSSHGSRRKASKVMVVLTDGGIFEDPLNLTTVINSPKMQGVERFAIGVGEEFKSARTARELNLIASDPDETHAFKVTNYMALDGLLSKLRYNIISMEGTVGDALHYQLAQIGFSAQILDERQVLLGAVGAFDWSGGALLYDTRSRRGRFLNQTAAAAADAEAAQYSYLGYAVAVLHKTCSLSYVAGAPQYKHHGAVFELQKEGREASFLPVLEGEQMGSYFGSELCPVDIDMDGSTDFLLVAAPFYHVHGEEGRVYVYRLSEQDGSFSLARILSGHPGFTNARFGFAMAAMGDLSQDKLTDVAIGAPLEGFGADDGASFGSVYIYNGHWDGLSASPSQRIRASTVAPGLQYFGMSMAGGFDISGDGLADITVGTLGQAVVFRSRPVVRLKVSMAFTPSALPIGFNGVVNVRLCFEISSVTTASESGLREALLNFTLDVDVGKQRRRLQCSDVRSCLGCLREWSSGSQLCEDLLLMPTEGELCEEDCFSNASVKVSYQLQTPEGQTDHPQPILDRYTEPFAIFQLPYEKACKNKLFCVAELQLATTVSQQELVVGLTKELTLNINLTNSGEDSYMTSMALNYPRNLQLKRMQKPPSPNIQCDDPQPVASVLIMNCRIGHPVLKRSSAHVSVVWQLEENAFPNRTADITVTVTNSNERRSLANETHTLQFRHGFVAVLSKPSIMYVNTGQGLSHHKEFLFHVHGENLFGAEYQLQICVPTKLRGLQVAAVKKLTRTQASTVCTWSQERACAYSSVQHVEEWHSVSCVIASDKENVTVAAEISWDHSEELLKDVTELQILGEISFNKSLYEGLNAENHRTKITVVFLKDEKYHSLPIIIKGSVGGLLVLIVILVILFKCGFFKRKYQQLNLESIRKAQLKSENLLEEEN
human αEβ7 integrin expressed on cells (human), sequence (chain, as listed by the source limits assumed, chain 2 of 2): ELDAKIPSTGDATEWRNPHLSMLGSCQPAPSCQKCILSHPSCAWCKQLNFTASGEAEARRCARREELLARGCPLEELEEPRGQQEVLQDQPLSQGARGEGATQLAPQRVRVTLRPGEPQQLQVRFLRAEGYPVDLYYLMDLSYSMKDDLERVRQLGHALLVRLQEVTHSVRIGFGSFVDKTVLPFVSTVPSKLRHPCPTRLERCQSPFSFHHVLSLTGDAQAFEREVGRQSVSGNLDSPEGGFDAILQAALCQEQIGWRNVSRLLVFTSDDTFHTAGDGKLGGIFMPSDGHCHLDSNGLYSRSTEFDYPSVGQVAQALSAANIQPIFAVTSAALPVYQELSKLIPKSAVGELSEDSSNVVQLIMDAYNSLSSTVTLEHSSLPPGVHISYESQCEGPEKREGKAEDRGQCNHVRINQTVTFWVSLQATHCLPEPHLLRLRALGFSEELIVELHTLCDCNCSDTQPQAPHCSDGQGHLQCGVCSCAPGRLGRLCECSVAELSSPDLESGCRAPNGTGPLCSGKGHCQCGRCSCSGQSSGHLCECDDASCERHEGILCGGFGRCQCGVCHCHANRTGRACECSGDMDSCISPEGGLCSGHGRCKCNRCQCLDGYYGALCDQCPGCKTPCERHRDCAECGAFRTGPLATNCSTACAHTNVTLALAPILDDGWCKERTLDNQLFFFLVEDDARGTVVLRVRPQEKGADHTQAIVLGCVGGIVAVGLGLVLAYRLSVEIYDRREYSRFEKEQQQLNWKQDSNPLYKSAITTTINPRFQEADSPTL

Row | % cells bound to immobilized E-cadherin [1] | % cells bound to immobilized E-cadherin [2] | % cells bound to immobilized E-cadherin [3] | Binding (mean fluorescence intensity) [4] | Binding (mean fluorescence intensity) [5] | Binding (mean fluorescence intensity) [6] | Substance
1 | 60% | < 10% | 40% |  |  |  | human αEβ7 integrin expressed on cells (from UniProt P38570 19-1179; P26010 20-798) (receptor)
2 |  |  |  | < 25 MFI | 75 MFI | 100 MFI | E-cadherin-IgG fusion protein (from UniProt P12830 155-699) (Fc fusion)
